Test results: patent publication US6368811 (VLAAMS INTERUNIVERSITAIR INSTITUUT VOOR BIOTECHNOLOGIE, dated 2002)

B1: N-terminal domain of sycl alone fused to Gal4 activating domain (other, not shown: large carriers)
chain: MSLYPSLEDLKVDKVIQAQTAFSANPANPAILSEASAPIPHDGNLYPRLYPELSQYMGLSLNEEEIRASVAVVSGAPLQGQLVARPSSINYMVAPVTGNDVGIRRAEIKQGIR
notes: also called The N-terminal domain alone
B2: first PDZ domain of sycl alone fused to Gal4 activating domain (other, not shown: large carriers)
chain: VGIRRAEIKQGIREVILCKDQDGKIGLRLKSIDNGIFVQLVQANSPASLVGLRFGDQVLQINGENCAGWSSDKAHKVLKQAFGEKITMTIRDR
notes: also called PDZ-1 alone; either of the two PDZ domains alone
B3: GST-sycl M92 (sycl sequence starting at M92) fusion protein (other)
chain: MVAPVTGNDVGIRRAEIKQGIREVILCKDQDGKIGLRLKSIDNGIFVQLVQANSPASLVGLRFGDQVLQINGENCAGWSSDKAHKVLKQAFGEKITMTIRDRPFERTITMHKDSTGHVGFIFKNGKITSIVKDSSAARNGLLTEHNICEINGQNVIGLKDSQIADILSTSGTVVTITIMPAFIFEHIIKRMAPSIMKSLMDHTIPEV
notes: Expressed in E. coli BL21; not shown: glutathione S-transferase (GST) as encoded by vector pGEX-5X-2
B4: second PDZ domain of sycl alone fused to Gal4 activating domain (other, not shown: large carriers)
chain: PFERTITMHKDSTGHVGFIFKNGKITSIVKDSSAARNGLLTEHNICEINGQNVIGLKDSQIADILSTSGTVVTITIMPAFI
notes: also called PDZ-2 alone; either of the two PDZ domains alone

What was measured:
[1] = target: T1, syndecan-3 full length cytoplasmic domain fused to the Gal4 DNA-binding domain (UniProt P04386 1-147; O75056 410-442); assay: yeast two-hybrid
T1 construct: also called Gal4-syndecan bait
Source text: (§1) The yeast two-hybrid system (Chien et al, 1991; P.N.A.S., 88, 9578–9582) was used to identify the domains of sycl and the residues in the syndecan cytoplasmic domains that are responsible for the syndecan-sycl interaction. Different parts of the original clone (3p11) and of the sycl cDNA were subcloned in the pGAD10 vector (Clontech Laboratories), to code for fusions between the activating domain of Gal4 (Gal4 AD) and various full length, truncated, deleted, point-mutated, or epitope-tagged versions of sycl. […] But a requirement for paired PDZ domains (for instance two PDZ1 or two PDZ2 domains) has also been observed for the interactions of the GRIP adaptor protein with AMPA receptors 12 and the interaction of hDlg with the cytoplasmic domain of the Shaker-type K+channel.
(§2) Baits, comprising at least a cytoplasmic domain FYA (corresponds to Phe-Tyr-Ala) as C-terminal sequence of syndecans fused in frame to the DNA-binding domain of Gal4, were constructed by PCR, using the BamHI/SalI restriction sites of the pAS2 vector (Clontech Laboratories), and used to screen a human liver cDNA library (Clontech Laboratories) cloned in pGAD10. The pAS2 plasmids and library were cotransfected in CG1945 yeast cells, and positive clones were selected on triple minus plates (Leu-, Trp-, His-) and assayed for b-galactosidase activity. Positive cDNA clones were cotransfected with all four bait vectors and with the original pAS2 vector cells to confirm the interaction.

[2] = target: T2, syndecan-2 full length cytoplasmic domain fused to the Gal4 DNA-binding domain (UniProt P04386 1-147; P34741 170-201); assay: yeast two-hybrid
T2 construct: also called Gal4-syndecan bait
Source text: as §1, §2

[3] = target: T3, GST (glutathione S-transferase) itself (UniProt P08515 1-218 = GST); assay: ligand blot
T3 construct: Control; also called isolated GST-moiety
T3 sequence (P08515 whole entry): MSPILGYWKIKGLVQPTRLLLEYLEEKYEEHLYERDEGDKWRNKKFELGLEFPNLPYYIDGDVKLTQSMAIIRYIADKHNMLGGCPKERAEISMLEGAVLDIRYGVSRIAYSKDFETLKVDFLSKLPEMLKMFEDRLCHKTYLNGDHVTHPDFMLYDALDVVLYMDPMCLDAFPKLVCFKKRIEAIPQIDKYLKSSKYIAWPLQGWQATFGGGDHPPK

ligand blot = target: the molecule itself; assay: ligand blot

Binder | binding result [1] | binding result [2] | binding result [3] | binding result (ligand blot)
B1 | no binding | no binding |  | 
B2 | no binding | no binding |  | 
B3 |  |  | no binding | no binding
B4 | no binding | no binding |  | 
